Source: publication PMC4569726

Assays:
[1] = target: RSV F single-chain double mutant with fibritin trimerization domain (SC-DM: N67I, S215P) (respiratory syncytial virus strain A2 (subgroup A) | not stated); assay: SEC-MALS + native gel or EMSA; purified protein; SEC-MALS: 40 μg on TSK-Gel G3000SWxl in 150 mM NaPi, 50 mM NaCl, pH 7.0; NativePAGE Bis-Tris gel
[2] = target: RSV F single-chain triple mutant with fibritin trimerization domain (SC-TM: N67I, S215P, E487Q) (respiratory syncytial virus strain A2 (subgroup A) | not stated); assay: as above
[3] = target: Soluble, stabilized processed RSV F variant with fibritin motif (PR-TM: N67I, S215P, D486N) (respiratory syncytial virus strain A2 (subgroup A) | not stated); assay: SDS-PAGE without reducing agents and without boiling, Western blot; samples treated with standard 0.1% SDS buffer at room temperature

RSV F single-chain double mutant with fibritin trimerization domain (SC-DM: N67I, S215P) (domain or fragment)
stoichiometry N [1]: 3

RSV F single-chain triple mutant with fibritin trimerization domain (SC-TM: N67I, S215P, E487Q) (domain or fragment)
stoichiometry N [2]: 3

Soluble, stabilized processed RSV F variant with fibritin motif (PR-TM: N67I, S215P, D486N) (domain or fragment)
percent monomerized by 0.1% SDS [3]: 50%
